Reference: paper PMC6365055, “High resolution cryo-EM structure of the helical RNA-bound Hantaan virus nucleocapsid reveals its assembly mechanisms” (eLife, 2019)

Columns and labels:
[1] = biological target: the molecule itself; assay: negative stain EM
[2] = biological target: the molecule itself; assay: cryo-EM structure

Row | Protein | binding result [1] | binding result [2]
1 | NP_(74-429) construct obtained by trypsin limited proteolysis of HTNV-NC (domain or fragment, also called truncated construct NP_(74-429)) NLGKEQDPTGVEPGDHLKERSMLSYGNVLDLNHLDIDEPTGQTADWLSIIVYLTSFVVPILLKALYMLTTRGRQTTKDNKGTRIRFKDDSSFEDVNGIRKPKHLYVSLPNAQSSMKAEEITPGRYRTAVCGLYPAQIKARQMISPVMSVIGFLALAKDWSDRIEQWLIEPCKLLPDTAAVSLLGGPATNRDYLRQRQVALGNMETKESKAIRQHAEAAGCSMIEDIESPSSIWVFAGAPDRCPPTCLFIAGIAELGAFFSILQDMRNTIMASKTVGTSEEKLRKKSSFYQSYLRRTQSMGIQLGQRIIVLFMVAWGKEAVDNFHLGDDMDPELRTLAQSLIDVKVKEISNQEPLKL | binds | –
2 | Hantaan virus nucleoprotein, recombinant full-length (natural protein, also called HTNV-NP; NP) MATMEELQREINAHEGQLVIARQKVRDAEKQYEKDPDELNKRTLTDREGVAVSIQAKIDELKRQLADRIATGKNLGKEQDPTGVEPGDHLKERSMLSYGNVLDLNHLDIDEPTGQTADWLSIIVYLTSFVVPILLKALYMLTTRGRQTTKDNKGTRIRFKDDSSFEDVNGIRKPKHLYVSLPNAQSSMKAEEITPGRYRTAVCGLYPAQIKARQMISPVMSVIGFLALAKDWSDRIEQWLIEPCKLLPDTAAVSLLGGPATNRDYLRQRQVALGNMETKESKAIRQHAEAAGCSMIEDIESPSSIWVFAGAPDRCPPTCLFIAGIAELGAFFSILQDMRNTIMASKTVGTSEEKLRKKSSFYQSYLRRTQSMGIQLGQRIIVLFMVAWGKEAVDNFHLGDDMDPELRTLAQSLIDVKVKEISNQEPLKL | – | binds
